Our source for the percent of SDHAF2 displaced from the SDHA-AF2 complex values is PMC10784507.

This assay concerns the target holo-SDHA-SDHAF2 complex (preformed from purified proteins) (human) (UniProt P31040). Briefly: pull-down; preformed holo-SDHA-SDHAF2 (2 µM, His6 on SDHA) incubated with SDHAF4 or its variants, with or without 5 mM fumarate, 30 min 25 °C, then held on Ni-NTA agarose; SDS-PAGE with Coomassie, western blot for the truncated variants. Background: In western blotting, separated proteins are transferred to a membrane and probed.

Sequence of SDHAF4^E92N (Q5VUM1 21-108 E92N, stated change not applied): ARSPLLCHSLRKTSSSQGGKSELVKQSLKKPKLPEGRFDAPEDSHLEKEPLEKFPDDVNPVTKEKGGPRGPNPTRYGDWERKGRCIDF
Sequence of holo-SDHA-SDHAF2 complex (preformed from purified proteins) (human) (P31040 43-664, chain 1 of 2): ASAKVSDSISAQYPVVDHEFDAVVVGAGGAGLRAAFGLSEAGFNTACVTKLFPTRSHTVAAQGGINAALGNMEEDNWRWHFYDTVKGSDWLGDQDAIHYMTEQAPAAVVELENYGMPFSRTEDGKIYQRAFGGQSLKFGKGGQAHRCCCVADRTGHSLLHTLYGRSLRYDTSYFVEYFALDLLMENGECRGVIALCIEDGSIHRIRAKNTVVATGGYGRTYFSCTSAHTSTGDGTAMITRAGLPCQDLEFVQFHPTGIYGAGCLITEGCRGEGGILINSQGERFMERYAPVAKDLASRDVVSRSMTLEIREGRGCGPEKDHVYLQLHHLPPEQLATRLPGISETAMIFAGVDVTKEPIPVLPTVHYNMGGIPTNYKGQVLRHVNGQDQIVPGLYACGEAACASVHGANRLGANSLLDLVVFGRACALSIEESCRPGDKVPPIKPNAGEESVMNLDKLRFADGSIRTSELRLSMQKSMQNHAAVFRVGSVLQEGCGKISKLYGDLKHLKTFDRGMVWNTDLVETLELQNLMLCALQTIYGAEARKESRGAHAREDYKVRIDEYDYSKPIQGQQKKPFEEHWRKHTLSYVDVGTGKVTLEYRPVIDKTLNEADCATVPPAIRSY
Sequence of holo-SDHA-SDHAF2 complex (preformed from purified proteins) (human) (Q9NX18 37-166, chain 2 of 2, further chain): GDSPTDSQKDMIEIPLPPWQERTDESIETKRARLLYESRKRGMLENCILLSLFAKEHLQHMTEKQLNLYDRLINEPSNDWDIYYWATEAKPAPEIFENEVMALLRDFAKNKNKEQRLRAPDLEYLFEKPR

“SDHAF4^E92N (from UniProt Q5VUM1 21-108) (natural protein)”: the percent of SDHAF2 displaced from the SDHA-AF2 complex was 40 to 50%.
